Test results taken from publication PMC8015787.

Substrate: O=CCO
Test: O2 consumption
Format: biochemical, Escherichia coli
Conditions: thiamin diphosphate (ThDP), Mg2+ active site; donor (and acceptor) substrate

B1: 1-deoxy-D-xylulose 5-phosphate synthase (DXPS) (Escherichia coli K-12) (protein)
chain: SFDIAKYPTLALVDSTQELRLLPKESLPKLCDELRRYLLDSVSRSSGHFASGLGTVELTVALHYVYNTPFDQLIWDVGHQAYPHKILTGRRDKIGTIRQKGGLHPFPWRGESEYDVLSVGHSSTSISAGIGIAVAAEKEGKNRRTVCVIGDGAITAGMAFEAMNHAGDIRPDMLVILNDNEMSISENVGALNNHLAQLLSGKLYSSLREGGKKVFSGVPPIKELLKRTEEHIKGMVVPGTLFEELGFNYIGPVDGHDVLGLITTLKNMRDLKGPQFLHIMTKKGRGYEPAEKDPITFHAVPKFDPSSGCLPKSSGGLPSYSKIFGDWLCETAAKDNKLMAITPAMREGSGMVEFSRKFPDRYFDVAIAEQHAVTFAAGLAIGGYKPIVAIYSTFLQRAYDQVLHDVAIQKLPVLFAIDRAGIVGADGQTHQGAFDLSYLRCIPEMVIMTPSDENECRQMLYTGYHYNDGPSAVRYPRGNAVGVELTPLEKLPIGKGIVKRRGEKLAILNFGTLMPEAAKVAESLNATLVDMRFVKPLDEALILEMAASHEALVTVEENAIMGGAGSGVNEVLMAHRKPVPVLNIGLPDFFIPQGTQEEMRAELGLDAAGMEAKIKAWLA
Km: 920 ± 120 µM
